This assay concerns the target T1, 인간 TIGIT-His (human, UniProt Q495A1 22-141).
T1 construct: extracellular domain; also called TIGIT-6x His; TIGIT 항원
T1 sequence: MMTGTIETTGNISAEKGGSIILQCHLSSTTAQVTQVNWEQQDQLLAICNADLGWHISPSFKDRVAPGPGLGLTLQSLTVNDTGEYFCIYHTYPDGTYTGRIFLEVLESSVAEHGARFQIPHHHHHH
The assay is described as follows: BLI (Octet QK), antibody on AHC biosensor, human TIGIT-His 15 nM ~ 1.88 nM, 1:1 global fit.

B1: SA2209 (antibody, V domains shown)
VH: QVQLQESGPGLVKPSGTLSLTCAVSGVSIRQGHWWSWVRQPPGKGLEWIGEIYQTGRTNYNPSLKSRVTISVGKSRNHISLKLSSVTAADTAVYYCTTGSGWYPIDYWGQGTLVTVSS
VL: SYELTQDPAVSVALGQTVRITCQGDSLRGFYASWYQQKPGQAPLLVLYGVKDRPSGIPDRFSGSRSGTTASLTITGAQAEDEADYYCNSRDSNGAMMFGGGTKLTVL
notes: also called 항-TIGIT 항체; anti-TIGIT antibody
On to B1, for which the Kd came to 3.43 nM, the off-rate constant (koff) was 0.00136 s⁻¹ and the kon stood at 397000 M⁻¹ s⁻¹.
